We go through 5 molecules from patent US20200040101A1 (ASKGENE PHARMA, published 2020).

Test [1] addresses T1, human Claudin 18.2 (CLDN18.2) expressed on cells (human, UniProt P56856-2 1-261).
T1 construct: whole, on cells; also called CLD18.2; CLD18A2
Nature of the test: FACS, HEK 293 cells expressing CLDN18.2.

The target of the next test is T2, Claudin-4.
T2 construct: expressed on transiently transfected HEK 293 cells; the sheet prints only the number after Claudin-1
Nature of the test: FACS, transfected HEK 293 cells. (In flow cytometry, cells or beads pass a laser one at a time.)

Another test concerns the target T3, Claudin-17.
T3 construct: expressed on transiently transfected HEK 293 cells; the sheet prints only the number after Claudin-1
T3 sequence (P56750 whole entry, species assumed, looked up): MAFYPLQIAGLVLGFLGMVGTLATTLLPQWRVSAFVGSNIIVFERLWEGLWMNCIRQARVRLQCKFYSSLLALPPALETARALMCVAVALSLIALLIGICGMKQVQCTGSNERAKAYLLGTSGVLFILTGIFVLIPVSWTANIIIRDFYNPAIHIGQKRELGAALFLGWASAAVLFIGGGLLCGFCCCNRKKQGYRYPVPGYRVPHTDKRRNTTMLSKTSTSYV
The test is described as follows: FACS, transfected HEK 293 cells.

The target of another test is T4, Claudin-10.
T4 construct: expressed on transiently transfected HEK 293 cells; the sheet prints only the number after Claudin-1
T4 sequence (P78369 1-228, species assumed, looked up): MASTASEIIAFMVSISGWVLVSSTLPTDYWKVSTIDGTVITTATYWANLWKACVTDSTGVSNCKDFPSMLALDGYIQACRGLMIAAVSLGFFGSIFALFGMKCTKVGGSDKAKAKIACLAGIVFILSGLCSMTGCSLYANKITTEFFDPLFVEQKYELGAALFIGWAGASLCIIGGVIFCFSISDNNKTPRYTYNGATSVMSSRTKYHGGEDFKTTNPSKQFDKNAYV
Nature of the test: FACS, transfected HEK 293 cells.

The next test concerns the target T5, Claudin-12.
T5 construct: expressed on transiently transfected HEK 293 cells; the sheet prints only the number after Claudin-1
Nature of the test: FACS, transfected HEK 293 cells.

The target in the next test is T6, Claudin-11.
T6 construct: expressed on transiently transfected HEK 293 cells; the sheet prints only the number after Claudin-1
T6 sequence (O75508 whole entry, species assumed, looked up): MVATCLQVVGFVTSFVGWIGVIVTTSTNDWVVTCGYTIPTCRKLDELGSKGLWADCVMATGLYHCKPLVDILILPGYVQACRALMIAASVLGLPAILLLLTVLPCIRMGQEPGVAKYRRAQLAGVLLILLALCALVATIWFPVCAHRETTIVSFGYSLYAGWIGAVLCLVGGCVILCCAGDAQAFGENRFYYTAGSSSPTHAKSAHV
Nature of the test: FACS, transfected HEK 293 cells.

For test [2], the target named is T7, CLDN 7 expressed on HEK 293 cells (UniProt O95471 1-211, limits assumed).
T7 construct: whole, on cells
T7 sequence (looked up): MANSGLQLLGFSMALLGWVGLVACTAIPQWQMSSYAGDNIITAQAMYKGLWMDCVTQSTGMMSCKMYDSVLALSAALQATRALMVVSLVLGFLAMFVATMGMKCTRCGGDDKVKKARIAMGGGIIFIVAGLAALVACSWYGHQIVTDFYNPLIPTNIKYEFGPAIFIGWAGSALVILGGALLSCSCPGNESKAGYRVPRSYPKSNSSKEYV
Nature of the test: FACS, transfected HEK 293 cells.

Another test has as its target T8, Claudin-1.
T8 construct: expressed on transiently transfected HEK 293 cells
Nature of the test: FACS, transfected HEK 293 cells.

The target of a further test is T9, Claudin-22.
T9 construct: expressed on transiently transfected HEK 293 cells; the sheet prints only the number after Claudin-1
Nature of the test: FACS, transfected HEK 293 cells.

In a further test the target is T10, Claudin-23.
T10 construct: expressed on transiently transfected HEK 293 cells; the sheet prints only the number after Claudin-1
T10 sequence (Q96B33 1-292, species assumed, looked up): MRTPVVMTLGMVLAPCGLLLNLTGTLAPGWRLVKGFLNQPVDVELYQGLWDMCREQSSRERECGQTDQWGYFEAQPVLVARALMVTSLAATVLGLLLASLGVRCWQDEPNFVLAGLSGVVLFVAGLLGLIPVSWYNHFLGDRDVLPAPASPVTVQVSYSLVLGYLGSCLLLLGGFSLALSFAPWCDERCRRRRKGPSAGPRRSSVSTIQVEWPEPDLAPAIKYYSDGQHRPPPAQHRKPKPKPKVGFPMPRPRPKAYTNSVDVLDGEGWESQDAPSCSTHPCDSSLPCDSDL
Nature of the test: FACS, transfected HEK 293 cells.

Another test deals with T11, Claudin-5.
T11 construct: expressed on transiently transfected HEK 293 cells; the sheet prints only the number after Claudin-1
T11 sequence (O00501 whole entry, species assumed, looked up): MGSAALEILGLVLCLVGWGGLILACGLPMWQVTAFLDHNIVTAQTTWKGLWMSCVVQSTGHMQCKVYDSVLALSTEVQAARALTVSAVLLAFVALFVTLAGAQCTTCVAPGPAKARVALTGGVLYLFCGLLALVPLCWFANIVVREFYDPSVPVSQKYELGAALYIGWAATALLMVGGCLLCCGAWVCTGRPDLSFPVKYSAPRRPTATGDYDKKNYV
Nature of the test: FACS, transfected HEK 293 cells.

A further test deals with T12, Claudin-8.
T12 construct: expressed on transiently transfected HEK 293 cells; the sheet prints only the number after Claudin-1
Nature of the test: FACS, transfected HEK 293 cells.

Another test has as its target T13, Claudin-19.
T13 construct: expressed on transiently transfected HEK 293 cells; the sheet prints only the number after Claudin-1
T13 sequence (Q8N6F1 whole entry, species assumed, looked up): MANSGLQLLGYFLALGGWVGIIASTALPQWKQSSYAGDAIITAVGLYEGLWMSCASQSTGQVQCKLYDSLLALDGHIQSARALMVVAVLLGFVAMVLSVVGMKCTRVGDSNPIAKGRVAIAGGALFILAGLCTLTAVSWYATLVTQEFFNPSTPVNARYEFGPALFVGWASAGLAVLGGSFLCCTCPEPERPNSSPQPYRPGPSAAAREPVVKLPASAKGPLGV
Nature of the test: FACS, transfected HEK 293 cells.

A further test deals with T14, Claudin-2.
T14 construct: expressed on transiently transfected HEK 293 cells; the sheet prints only the number after Claudin-1
T14 sequence (P57739 whole entry, species assumed, looked up): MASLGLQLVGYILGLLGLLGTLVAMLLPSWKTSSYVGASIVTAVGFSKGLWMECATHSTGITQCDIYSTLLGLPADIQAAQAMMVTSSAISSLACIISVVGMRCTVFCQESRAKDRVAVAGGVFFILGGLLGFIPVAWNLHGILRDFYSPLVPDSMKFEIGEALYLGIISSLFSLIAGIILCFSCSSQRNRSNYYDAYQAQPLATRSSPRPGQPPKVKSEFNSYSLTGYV
The test is described as follows: FACS, transfected HEK 293 cells.

Another test deals with T15, Claudin-16.
T15 construct: expressed on transiently transfected HEK 293 cells; the sheet prints only the number after Claudin-1
T15 sequence (Q9Y5I7 1-235, species assumed, looked up): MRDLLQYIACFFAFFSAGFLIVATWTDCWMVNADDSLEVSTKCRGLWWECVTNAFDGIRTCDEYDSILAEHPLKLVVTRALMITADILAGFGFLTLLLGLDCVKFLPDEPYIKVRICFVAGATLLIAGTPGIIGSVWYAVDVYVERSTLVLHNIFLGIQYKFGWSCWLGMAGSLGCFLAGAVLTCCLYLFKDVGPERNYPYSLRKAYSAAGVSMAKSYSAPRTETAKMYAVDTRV
Nature of the test: FACS, transfected HEK 293 cells.

Another test addresses T16, Claudin-34.
T16 construct: expressed on transiently transfected HEK 293 cells; the sheet prints only the number after Claudin-1
Nature of the test: FACS, transfected HEK 293 cells.

For a further test, the target named is T17, Claudin-14.
T17 construct: expressed on transiently transfected HEK 293 cells; the sheet prints only the number after Claudin-1
The test is described as follows: FACS, transfected HEK 293 cells.

A further test addresses T18, Claudin-3.
T18 construct: expressed on transiently transfected HEK 293 cells; the sheet prints only the number after Claudin-1
The test is described as follows: FACS, transfected HEK 293 cells.

A further test addresses T19, Claudin-9.
T19 construct: expressed on transiently transfected HEK 293 cells; the sheet prints only the number after Claudin-1
Nature of the test: FACS, transfected HEK 293 cells.

Test [3] has as its target T1, human Claudin 18.2 (CLDN18.2) expressed …. The test is described as follows: FACS, transfected HEK 293 cells, second 18.2 column.
Test [4] has the same target. Nature of the test: FACS, transfected HEK 293 cells, first 18.2 column.
Test [5] shares this target. Nature of the test: FACS, hybridoma subclone supernatant, CLDN18.2 and CLDN18.1 cells in one plot.

B1: M5 (mutated version of M1) (antibody, V domains shown)
VH: QVQLVQSGAEVKKPGASVKVSCKASGYTFTSYVINWVRQATGQGLEWIGEIHPRGGNTYYSEKFRGRVTLTADTSISTAYMELSSLRSEDTAVYYCARLRRGNAMDYWDQGTTVTVSS
VL: DIVMTQSPSSLAVSLGEMATINCKSSQSLLNSGNQRNYLTWYQQKPGQPPKLLIYWASTRESGVPDRFSGSGSGTDFTLTISSLQAEDVAVYYCQNSYNYPYTFGQGTKLERK
notes: Humanized mouse antibody from 11E12 (hu11E12VHv1B with hu11E12VLv1); also called ASK-M5_DS; Molecule M5
Turning to B1, the EC50 (read off the curve) (in general, the concentration at which the effect is half-maximal) in [1] was roughly 0.3 µg/mL. For the same molecule, the MFI with Claudin-4 worked out at 21.8; with Claudin-17, 21.9; with Claudin-10 it was 22.3; in the test with Claudin-12 it was 21.6; with Claudin-11, 20.3; in [2], 23.4. The MFI in the test with Claudin-1 worked out at 23.6; in the test with Claudin-22, 22.2; with Claudin-23, 21.7; with Claudin-5, 21.2; with Claudin-8, 20.8; with Claudin-19, 21.3. The MFI with Claudin-2 worked out at 22; in the test with Claudin-16 it was 21.8; with Claudin-34, 24.1; with Claudin-14 it was 22.4; in the test with Claudin-3, 23.3; with Claudin-9, 21.7. The MFI in test [3] stood at 2810; in test [4], 3610.

B2: ASK589-M1 (antibody, V domains shown)
VH: QVQLVQSGAEVKKPGASVKVSCKASGYTFTSYVINWVRQATGQGLEWIGEIHPRGGNTYYSEKFRGRVTLTADTSISTAYMELSSLRSEDTAVYYCAILRRGNAMDYWDQGTTVTVSS
VL: DIVMTQSPSSLAVSLGEMATINCKSSQSLLNSGNQRNYLTWYQQKPGQPPKLLIYWASTRESGVPDRFSGSGSGTDFTLTISSLQAEDVAVYYCQNSYNYPYTFGQGTKLERK
notes: Humanized mouse antibody from 11E12 (hu11E12VHv1 with hu11E12VLv1); also called Molecule M1; M1_DS
As for B2, the MFI is 20.7 in the test with Claudin-4; 21.7 with Claudin-17; 23.2 in the test with Claudin-10; 21.9 in the test with Claudin-12; 19.4 with Claudin-11; 21.5 in test [2]. In addition, the MFI amounted to 23.4 in the test with Claudin-1; 21.1 in the test with Claudin-22; 19.3 with Claudin-23; 20 with Claudin-5; 20.4 with Claudin-8; 20.5 with Claudin-19. The MFI with Claudin-2 amounted to 22.3; in the test with Claudin-16, 21; in the test with Claudin-34, 20.7; with Claudin-14, 20.1; with Claudin-3 it was 21.4; with Claudin-9, 20.5. Moreover, the MFI in test [3] worked out at 4650; in [4] it was 4820.

B3: 83G3 (mouse hybridoma subclone antibody) (antibody, V domains shown)
VH: QVQLQQSGAELAKPGASVKLSCKASGFTFTSYWIHWVKQRPGQGLEWIGYIDPSNTYTKFNQKFKDKATLTADKSSSTAYMQLNSLTFEDSAVYYCATGRGFAYWGQGTLVTVSS
VL: DIVMTQSPSSLTVTAGEKVTVSCKSSQSLFNSGNQKHYLTWYQQKPGQPPKLLIYRASTRESGVPDRFTGSGSGTDFTLTIRNVQAEDLAVYYCQNDYSFPLTFGAGTKLELK
notes: also remade as chimeric antibody with human IgG1 and kappa
Regarding B3, the binding result in test [5] is “binds”.

B4: 79C4 (mouse hybridoma subclone antibody) (antibody, V domains shown)
VH: EVKLEESGGGLVQPGGSMKLSCVASGFTFSNYWMNWVRQSPEKGLEWVAEIRLKSKNYATHYAESVKGRFTISRDDSIGSVYLQMNNLRAEDTGIYYCARGHYGTNYGDYWGQGTSVTVSS
VL: DIQTTQSPSSLSASLGERVTLTCRASQEISGYLSWLQQKPDGTIKRLIYAASTLDSGVPKRFSGSRSGSDYSLTINSLESEDFVDYYCLQYDSSPWTFGGGTKLEIK
notes: also remade as chimeric antibody with human IgG1 and kappa (pFUSE vectors)
With B4, the binding result in test [5] is listed as “binds”.

B5: 85H12 (mouse hybridoma subclone antibody) (antibody, V domains shown)
VH: EVKLEESGGGLVQPGGSMKLSCVASGFTFSNYWMNWVRQSPEKGLEWVAEIRLKSKNYATHYAESVKGRFTISRDDSIGSVYLQMNNLRAEDTGIYYCARGHYGTNYGDYWGQGTSVTVSS
VL: DIVMTQSPSSLTVTAGEKVTVSCKSSQSLFNSGNQKHYLTWYQQKPGQPPKLLIYRASTRESGVPDRFTGSGSGTDFTLTIRNVQAEDLAVYYCQNDYSFPLTFGAGTKLELK
notes: as for B3
As for B5, the binding result in test [5] is “binds”.
